Experimental data: the supplement of paper PMC9170038

Tested on: MS2 coat protein
Test: apparent KD of MS2 coat protein; designed switch direction (-1 OFF switch, 1 ON switch): 1; higher = weaker reporter binding
Method in brief: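 RNA switches sharing common flanks were transcribed by stalled E. coli RNA polymerase on Illumina chips. A doubling series of SNAP-549-labelled MS2 coat protein, from 0.7 or 1.5 nM to 3 µM, was applied in Tris-HCl pH 7.5 buffer with KCl, MgCl2, BSA, DTT, tRNA and Tween-20. Each step lasted 0.8–1.5 h at the bottom of the series and 10–20 min at the top. Normalised cluster fluorescence was curve-fitted, giving apparent KD as the per-design median over clusters.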

[1] = input ligand: microRNA oligo, concentration not stated
[2] = Eterna round: R95, input ligand: FMN 200 uM
[3] = Eterna round: R95, input ligand: microRNA oligo, concentration not stated
[4] = Eterna round: R95, input ligand: none

For “GGUGCCAAUAAAGCCUACAUGAGGAUCACCCAUGUAUGUAGGCAGGAUAUCGUAUGCAAAGCAUACGAGAAGGGCCGAGGCACC [Mat - Same State NG 3 - JL Mod - D56] (Eterna round: R96, puzzle: Same State NG 3)”, the “apparent KD of MS2 coat protein” value (input ligand: FMN 200 uM) was 0.0187 µM, the “apparent KD of MS2 coat protein” value [1] was 0.0291 µM and the “apparent KD of MS2 coat protein” value (input ligand: none) was 0.037 µM.

For “GAGGGCGAAAGCAACAUGAGGAUCACCCAUGUUGUCGAAAGGCAGGAUAUCCGGCGAAAGCAGAAGGAGAAGGGUCGAAAAGAA [AK SSNG3-V2-40] (Eterna round: R96, puzzle: Same State NG 3)”, the “apparent KD of MS2 coat protein” value (input ligand: FMN 200 uM) was 0.0145 µM, the “apparent KD of MS2 coat protein” value [1] was 0.0197 µM and the “apparent KD of MS2 coat protein” value (input ligand: none) was 0.0249 µM.

For “AAUUAAUUAAUUAAUAUACAUGAGGAUCACCCAUGUAAGAUCAAGGAUAUCAGCUCGAUUAGAGCUGAGAAGGUGAUCACAUGU [SSNG3/16-A2] (Eterna round: R96, puzzle: Same State NG 3)”, the “apparent KD of MS2 coat protein” value [1] was 0.207 µM.

In the case of “AGUCCAGCCUGAGCUGGACAAUAGCAUGUACAUGAGGAUCACCCAUGUCAUGUACAAGCUUUUUGCUCGUCUUAAAA [JL zipper 48] (Eterna round: R96, puzzle: Sensor for hsa-mir-208a)”, the “apparent KD of MS2 coat protein” value (input ligand: FMN 200 uM) is reported as 0.163 µM, the “apparent KD of MS2 coat protein” value [1] is reported as 0.0124 µM and the “apparent KD of MS2 coat protein” value (input ligand: none) is reported as 0.159 µM.

For “AUUUCUAAUGCAGGAUAUGAUUAACAUGAGGAUCACCCAUGUGGUGUUGUGAGUAAGGAGAGUGAUCAGAAGGGCAUUUUUUUU [JMF's solution 99] (Eterna round: R96, puzzle: Same State NG 2)”, the “apparent KD of MS2 coat protein” value (input ligand: FMN 200 uM) was 0.915 µM, the “apparent KD of MS2 coat protein” value [1] was 0.428 µM and the “apparent KD of MS2 coat protein” value (input ligand: none) was 0.579 µM.

“GGUCGGUCCAACAUGAGGAUCACCCAUGUACCGGAAACGGCAUAGGAUAUCUGUCCGAAAAGGUCAGAGAAGGGUGAACCGACC [Fiskers NG3ss - 72] (Eterna round: R96, puzzle: Same State NG 3)” was tested, and the “apparent KD of MS2 coat protein” value (input ligand: FMN 200 uM) was 0.421 µM, the “apparent KD of MS2 coat protein” value [1] was 0.586 µM and the “apparent KD of MS2 coat protein” value (input ligand: none) was 0.229 µM.

With “GUUAUACAUGAGGAUCACCCAUGUCAAUGUAGUCGAGGAUAUGGGCAGCUAUGUAGCGUACUAGAAGGCGAAGAGU [JL-ss1-3.13 ViennaUCT mod] (puzzle: Same State 1)” the “apparent KD of MS2 coat protein” value [2] was 0.0684 µM, the “apparent KD of MS2 coat protein” value [3] was 0.0431 µM and the “apparent KD of MS2 coat protein” value [4] was 0.103 µM.

In the case of “UGAAUAUUUACAGGAUAUGAGUUGUAUAGUGGAUCAGAAGGGUGGGUGUUUUGCACGGUGUGUUACAUGAGGAUCACCCAUGUU [SameState NG1 #26] (Eterna round: R96, puzzle: Same State NG 1)”, the “apparent KD of MS2 coat protein” value (input ligand: FMN 200 uM) is reported as 0.412 µM, the “apparent KD of MS2 coat protein” value [1] is reported as 0.206 µM and the “apparent KD of MS2 coat protein” value (input ligand: none) is reported as 0.196 µM.

In the case of “AAGUAACAUGAGGAUCACCCAUGUGAGGUGAGCGUAGGAUAUCGAGGAGGAAGGGUGGAGCGAGAAGGACGAGAAG [JR_SS1_Sub097] (puzzle: Same State 1)”, the “apparent KD of MS2 coat protein” value [2] is reported as 0.114 µM, the “apparent KD of MS2 coat protein” value [3] is reported as 0.262 µM and the “apparent KD of MS2 coat protein” value [4] is reported as 0.402 µM.

For “AGUCCAGCCUGAGCUGGACAAAAGCAUGUACAUGAGGAUCACCCAUGUCAUGUAUAAGCUUUUUGCUCGUCUUAAUA [Zipper 49 - 11] (puzzle: Sensor for hsa-mir-208a)”, the “apparent KD of MS2 coat protein” value [2] was 0.024 µM, the “apparent KD of MS2 coat protein” value [3] was 0.011 µM and the “apparent KD of MS2 coat protein” value [4] was 0.0213 µM.

“ACACUCCGUGGAGGAUAUGGGCCUGCCCGGGAUACCGGGCCUAACACAUGAGGAUCACCCAUGUCCCAGAAGGCCGCUGGAGCC [Enenala] (Eterna round: R96, puzzle: Same State NG 2)” was tested, and the “apparent KD of MS2 coat protein” value (input ligand: FMN 200 uM) was 0.0262 µM, the “apparent KD of MS2 coat protein” value [1] was 0.0557 µM and the “apparent KD of MS2 coat protein” value (input ligand: none) was 0.12 µM.

For “UGUUGUAUUACAGGAUAUCUAUUGUUUUUGUUUAGAGAAGGGUAUUCACAUGAGGAUCACCCAUGUAUAUACGAGGAAGUUGUG [JMF's solution 80] (Eterna round: R96, puzzle: Same State NG 1)”, the “apparent KD of MS2 coat protein” value [1] was 0.045 µM.

In the case of “GCUAGUAAAAUUGCUAACAUGAGGAUCACCCAUGUAUGUUGGCAGGAUAUCGUUUGCAAAGCAAACGAGAAGGGCUAAACUAGC [Mat - Same State NG 3 - JL Mod - D15] (Eterna round: R96, puzzle: Same State NG 3)”, the “apparent KD of MS2 coat protein” value (input ligand: FMN 200 uM) is reported as 0.0302 µM, the “apparent KD of MS2 coat protein” value [1] is reported as 0.0475 µM and the “apparent KD of MS2 coat protein” value (input ligand: none) is reported as 0.0868 µM.

“GACAAUCUAUCUGAGGAUAUCAUGAAAAAAACAUGAGGAUCACCCAUGUGCAGGAAAACUGCAUAUGAGAAGGCAGAUAGAUUGC [salish99_SS2_r3_012] (Eterna round: R96, puzzle: Same State 2)” was tested, and the “apparent KD of MS2 coat protein” value [1] was 0.429 µM.

With “AUAAGGCAAGCUUUUUUCUCGUAGUGUAAACAUGAGGAUCACCCAUGUGCCCACCCUGGAUCUUUGGAUCCCAGAAC [Sobeedbeon] (puzzle: Sensor for hsa-mir-208a)” the “apparent KD of MS2 coat protein” value [2] was 0.023 µM, the “apparent KD of MS2 coat protein” value [3] was 0.0153 µM and the “apparent KD of MS2 coat protein” value [4] was 0.0224 µM.

For “GGAGCCGGCACUGAGGAUAUUCAUAUUAAAACAUGAGGAUCACCCAUGUAGGCCAGAAGGCCUUGGGAGAAGGCAGGUCGGCCCG [Bibimaor] (Eterna round: R96, puzzle: Same State 2)”, the “apparent KD of MS2 coat protein” value (input ligand: FMN 200 uM) was 0.0217 µM, the “apparent KD of MS2 coat protein” value [1] was 0.25 µM and the “apparent KD of MS2 coat protein” value (input ligand: none) was 0.311 µM.

For “UGGCUGAGUCGAGGAUAUGAUCUUCAUAUAUAUACAUGAGGAUCACCCAUGUAUAAUUACAUGGAUCAGAAGGCGACUCAGCCA [SSNG2/13-A1] (Eterna round: R96, puzzle: Same State NG 2)”, the “apparent KD of MS2 coat protein” value [1] was 0.0229 µM.

“UUUAGCGUUACAGGAUAUGGUGAGGAUUACCCACUAGAAGGGUAAACAUGUGCGUCGUACAUGAGGAUCACCCAUGUAGGGCGU (Eterna round: R96, puzzle: Same State NG 1)” was tested, and the “apparent KD of MS2 coat protein” value (input ligand: FMN 200 uM) was 0.0206 µM, the “apparent KD of MS2 coat protein” value [1] was 0.0155 µM and the “apparent KD of MS2 coat protein” value (input ligand: none) was 0.0206 µM.

For “UUGAUUAACGUAGGAUAUCGACCUACAUGAGGAUCACCCAUGUCUUUGAAUAGAUUUUUUUGUUACGAGAAGGACGUUAUGUAU [JR_SSNG2_Sub066] (Eterna round: R96, puzzle: Same State NG 2)”, the “apparent KD of MS2 coat protein” value (input ligand: FMN 200 uM) was 0.0407 µM, the “apparent KD of MS2 coat protein” value [1] was 0.0496 µM and the “apparent KD of MS2 coat protein” value (input ligand: none) was 0.0894 µM.

In the case of “AUUGUUUAUGCAGGAUAUGAUUAACAUGAGGAUCACCCAUGUGGUGUUGUGAGUAAGGAGAGUGAUCAGAAGGGCAUUUUUUUU [JMF's solution 69] (Eterna round: R96, puzzle: Same State NG 2)”, the “apparent KD of MS2 coat protein” value (input ligand: FMN 200 uM) is reported as 0.735 µM, the “apparent KD of MS2 coat protein” value [1] is reported as 0.273 µM and the “apparent KD of MS2 coat protein” value (input ligand: none) is reported as 0.411 µM.

In the case of “UGGUACAUGGGAGGAUAUCAUGUAGAAACAUGAGGAUCACCCAUGUUGAUGGAGACAUCGGAGAUUGAGAAGGCCCAUGUACCU [JL SSNG1 3.57] (Eterna round: R96, puzzle: Same State NG 2)”, the “apparent KD of MS2 coat protein” value (input ligand: FMN 200 uM) is reported as 0.0156 µM, the “apparent KD of MS2 coat protein” value [1] is reported as 0.0336 µM and the “apparent KD of MS2 coat protein” value (input ligand: none) is reported as 0.046 µM.

In the case of “AUUUGCGCUAUAGGAUAUGGCAGGGUGAACCAGCCAGAAGGAUAAGUAGGGAGGUGACAUGAGGAUCACCCAUGUAAUAAGGAA [Eternabot solution 6] (Eterna round: R96, puzzle: Same State NG 1)”, the “apparent KD of MS2 coat protein” value (input ligand: FMN 200 uM) is reported as 0.33 µM, the “apparent KD of MS2 coat protein” value [1] is reported as 0.29 µM and the “apparent KD of MS2 coat protein” value (input ligand: none) is reported as 0.378 µM.

For “GCGGAACAGGCCGACAUGAGGAUCACCCAUGUGGCCUCAUGUCAGGAUAUCGGGAAGAAGAAAACCGAGAAGGGACGGUGACGC [AK SSNG3-V2-33.2] (Eterna round: R96, puzzle: Same State NG 3)”, the “apparent KD of MS2 coat protein” value (input ligand: FMN 200 uM) was 0.0234 µM, the “apparent KD of MS2 coat protein” value [1] was 0.00943 µM and the “apparent KD of MS2 coat protein” value (input ligand: none) was 0.0101 µM.

With “AUAAAACAUGAGGAUCACCCAUGUCAACAAAGUCGAGGAUAUGGGCAAAUAAAAUAAGAACCAGAAGGCGAAUUAU [salish99_ss1_r3_036] (puzzle: Same State 1)” the “apparent KD of MS2 coat protein” value [2] was 0.0316 µM, the “apparent KD of MS2 coat protein” value [3] was 0.423 µM and the “apparent KD of MS2 coat protein” value [4] was 1.14 µM.

“AUAAUAAGGACAGGAUAUGGGAAAGGAAGUGUACUAGAAGGGUCGAGAAGACCAGAACAUGAGGAUCACCCAUGUGAUGGGAAA [PowerStrip SSNG 1.28] (Eterna round: R96, puzzle: Same State NG 1)” was tested, and the “apparent KD of MS2 coat protein” value (input ligand: FMN 200 uM) was 0.0217 µM, the “apparent KD of MS2 coat protein” value [1] was 0.0233 µM and the “apparent KD of MS2 coat protein” value (input ligand: none) was 0.0361 µM.

“UCUUGGUUUUUGCUCGUUUUUUGUGUUGAACAUGAGGAUCACCCAUGUAUUGUACGGUCCGAUUUGAUAGUGGUCCG [JMF 20] (puzzle: Sensor for hsa-mir-208a)” was tested, and the “apparent KD of MS2 coat protein” value [2] was 0.0261 µM, the “apparent KD of MS2 coat protein” value [3] was 0.0157 µM and the “apparent KD of MS2 coat protein” value [4] was 0.027 µM.

In the case of “GUAGCAUACCGAGGAUAUUCAUAUUAAACAUGAGGAUCACCCAUGUAUUAGGCCAAAAGGCCUUGGGAGAAGGCGGAAUGCUAC [Xeonanis - 20 Mod5] (Eterna round: R96, puzzle: Same State NG 2)”, the “apparent KD of MS2 coat protein” value (input ligand: FMN 200 uM) is reported as 0.0246 µM, the “apparent KD of MS2 coat protein” value [1] is reported as 0.0283 µM and the “apparent KD of MS2 coat protein” value (input ligand: none) is reported as 0.0483 µM.

In the case of “GUAGCAGGCACAGGAUAUGUUGACCAGGGAGUACAUGAGGAUCACCCAUGUCCGACACACCGGCAAUAGAAGGGUGAGUGGCAG [Eternabot solution 17] (Eterna round: R96, puzzle: Same State NG 2)”, the “apparent KD of MS2 coat protein” value (input ligand: FMN 200 uM) is reported as 0.0358 µM, the “apparent KD of MS2 coat protein” value [1] is reported as 0.0449 µM and the “apparent KD of MS2 coat protein” value (input ligand: none) is reported as 0.0781 µM.
